According to PMC10404681, “Intrinsic catalytic properties of histone H3 lysine-9 methyltransferases preserve monomethylation levels under low S-adenosylmethionine” (The Journal of Biological Chemistry, 2023):
*: point of attachment. 5FAM = O=C1OC2(c3ccc(O)cc3Oc3cc(O)ccc32)c2ccc(C(=O)*)cc21

T1: H. sapiens EHMT1 catalytic subunit (amino acids 982 to 1266) (H. sapiens, UniProt Q9H9B1 982-1266)
T1 construct: EHMT1 (G9a-like protein, KMT1D), human, catalytic subunit, amino acids 982 to 1266; UniProt entry Q9H9B1 is printed for human EHMT1; Plasmid from Addgene (gift of Cheryl Arrowsmith); The tag is surmised from the nickel column purification; also called G9a-like protein; GLP; source: Rosetta E. coli, purified (HisTrap FF nickel column, dialysis)
T1 sequence (looked up): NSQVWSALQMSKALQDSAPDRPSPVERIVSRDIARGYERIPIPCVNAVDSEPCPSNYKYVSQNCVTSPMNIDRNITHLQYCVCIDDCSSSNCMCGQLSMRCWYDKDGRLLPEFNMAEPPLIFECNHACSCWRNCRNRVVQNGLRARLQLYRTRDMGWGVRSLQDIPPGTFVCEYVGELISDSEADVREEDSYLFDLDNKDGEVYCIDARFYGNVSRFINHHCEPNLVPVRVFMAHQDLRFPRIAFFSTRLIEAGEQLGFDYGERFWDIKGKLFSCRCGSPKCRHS

T2: H. sapiens EHMT2 catalytic subunit (amino acids 913 to 1193) (H. sapiens, UniProt Q96KQ7 913-1193)
T2 construct: EHMT2 (G9a, KMT1C), human, catalytic subunit, amino acids 913 to 1193; Plasmid provided by the laboratory of Peter W. Lewis; The tag is surmised from the nickel column purification; also called G9a; KMT1C; source: Rosetta E. coli, purified (HisTrap FF nickel column, dialysis)
T2 sequence (looked up): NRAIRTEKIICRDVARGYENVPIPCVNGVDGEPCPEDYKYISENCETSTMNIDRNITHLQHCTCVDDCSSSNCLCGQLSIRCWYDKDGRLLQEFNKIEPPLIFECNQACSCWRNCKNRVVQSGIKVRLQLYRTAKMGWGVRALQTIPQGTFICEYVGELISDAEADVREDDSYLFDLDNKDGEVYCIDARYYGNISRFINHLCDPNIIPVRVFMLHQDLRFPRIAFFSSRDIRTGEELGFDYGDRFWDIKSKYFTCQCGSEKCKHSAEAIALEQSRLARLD

T3: SUV39H1, full length with N-terminal maltose-binding protein (UniProt O43463 1-412)
T3 construct: SUV39H1 (KMT1A), full length; Plasmid generated for this study; The His tag is surmised from the nickel column purification; also called KMT1A; source: Rosetta E. coli, purified (HisTrap FF nickel column, dialysis)
T3 sequence (looked up): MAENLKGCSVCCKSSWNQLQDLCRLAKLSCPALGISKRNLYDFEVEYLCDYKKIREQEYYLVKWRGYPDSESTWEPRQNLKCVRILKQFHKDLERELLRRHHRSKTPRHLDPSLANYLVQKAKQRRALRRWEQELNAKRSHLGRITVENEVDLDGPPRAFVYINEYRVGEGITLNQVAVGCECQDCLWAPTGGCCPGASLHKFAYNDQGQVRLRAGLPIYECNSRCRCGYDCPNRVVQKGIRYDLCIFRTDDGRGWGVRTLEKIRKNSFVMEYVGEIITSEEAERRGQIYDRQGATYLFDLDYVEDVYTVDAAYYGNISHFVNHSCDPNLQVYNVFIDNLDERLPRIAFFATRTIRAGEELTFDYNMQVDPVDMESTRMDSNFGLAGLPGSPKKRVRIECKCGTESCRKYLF


Legend:
Experiment in all cases: fluorescence polarisation; enzyme titrated (0-10 uM, monomeric) against a fixed 20-100 nM of N-terminus 5-FAM labeled H3(1-17) peptide, with 100 uM SAH; 50 mM HEPES pH 7.9, 2 mM MgCl2, 0.5 mM DTT, 0.1 mM AEBSF, 0.01% Triton X-100, 10% glycerol; 10 min at 25 °C; one site specific binding fit
Settings in all cases: both partners purified
[1] = molecular target: T1, H. sapiens EHMT1 catalytic subunit …
[2] = molecular target: T2, H. sapiens EHMT2 catalytic subunit …
[3] = molecular target: T3, SUV39H1, full length with N-terminal …
[4] = molecular target: T4, H. sapiens SUV39H2 catalytic subunit (amino acids 162 to 410) (H. sapiens, UniProt Q9H5I1 162-410)
T4 construct: Plasmid from Addgene (gift of Cheryl Arrowsmith); The tag is surmised from the nickel column purification; also called KMT1B; source: Rosetta E. coli, purified (HisTrap FF nickel column, dialysis)
T4 sequence (Q9H5I1 162-410): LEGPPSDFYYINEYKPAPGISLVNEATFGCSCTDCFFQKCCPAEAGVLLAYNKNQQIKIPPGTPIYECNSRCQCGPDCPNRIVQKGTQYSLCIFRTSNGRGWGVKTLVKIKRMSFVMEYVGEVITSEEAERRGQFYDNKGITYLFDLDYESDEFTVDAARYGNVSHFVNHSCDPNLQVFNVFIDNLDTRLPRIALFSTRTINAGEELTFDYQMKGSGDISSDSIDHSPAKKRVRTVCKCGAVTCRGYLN

Row | Kd [1] | Kd [2] | Kd [3] | Kd [4] | Binder
1 | 29 ± 1 nM | 16 ± 0.4 nM | 499 ± 45 nM | 1080 ± 226 nM | 5FAM-ARTKQTARKSTGGKAPR-NH2 (peptide, UniProt P68431 2-18, looked up, Histone H3, residues 1-17, lysine 9 unmodified; Made on Rink-amide resin, so the C-terminus is probably an amide (surmised); Residues 1-17 are the same in H3.1, H3.2 and H3.3; also called H3K9un; source: synthetic peptide (solid phase synthesis on Rink-amide ChemMatrix resin, C18-HPLC-purified)) [H3(1-17) K9 unmodified peptide, N-terminus 5-FAM labeled]
2 | 74 ± 10 nM | 26 ± 1 nM | 750 ± 47 nM | 694 ± 98 nM | ARTKQTARKSTGGKAPR (peptide, UniProt P68431 2-18, looked up, 5-Carboxyfluorescein (5-FAM) on the N-terminus; monomethyl-lysine at 9, Histone H3, residues 1-17, lysine 9 monomethylated; Made on Rink-amide resin, so the C-terminus is probably an amide (surmised); also called H3K9me1; source: synthetic peptide (solid phase synthesis on Rink-amide ChemMatrix resin, C18-HPLC-purified)) [H3(1-17) K9 monomethylated peptide, N-terminus 5-FAM labeled]
3 | 124 ± 24 nM | 40 ± 3 nM | 479 ± 123 nM | 929 ± 573 nM | ARTKQTARKSTGGKAPR (peptide, UniProt P68431 2-18, looked up, 5-Carboxyfluorescein (5-FAM) on the N-terminus; dimethyl-lysine at 9, Histone H3, residues 1-17, lysine 9 dimethylated; Made on Rink-amide resin, so the C-terminus is probably an amide (surmised); also called H3K9me2; source: synthetic peptide (solid phase synthesis on Rink-amide ChemMatrix resin, C18-HPLC-purified)) [H3(1-17) K9 dimethylated peptide, N-terminus 5-FAM labeled]
